# PMC3298758
# Read-outs that look alike come from different tables or passages of the source. Ends that are not written are not given here.
# Tests used:
# [1] = target: Factor X; assay: SPR
# [2] = target: Factor X; assay: cross-linking
# [3] = target: Factor X; assay: ELISA
# [4] = target: Factor VIII light chain (A3C1C2 domains); assay: ELISA
# [5] = target: Factor X; assay: ELISA; remark: listed apart in the source
# [6] = target: Factor X; assay: SPR; remark: listed apart in the source
# [7] = target: Factor X; assay: cross-linking; remark: listed apart in the source
molecule,measurement,setting,value
A3C1C2 subunit from FVIII variant Met2010Ala (from UniProt P00451 1709-2351) (domain or fragment),Kd,[1],59.5 nM
Factor VIII light chain (A3C1C2 domains) (domain or fragment),stoichiometry N,[2],1
same,Kd,[3],370 nM
same,Kd,[1],165 nM
A3C1C2 subunit from FVIII variant Ser2011Ala (from UniProt P00451 1709-2351) (domain or fragment),Kd,[1],59.4 nM
A3C1C2 subunit from FVIII variant Thr2012Ala/Phe2014Ala (from UniProt P00451 1709-2351) (domain or fragment),Kd,[1],193 nM
active site-modified activated protein C (DEGR-APC) (enzyme),Ki,[4],82.7 nM
A3C1C2 subunit from FVIII variant Phe2014Ala (from UniProt P00451 1709-2351) (domain or fragment),Kd,[1],104 nM
A3C1C2 subunit from FVIII variant Thr2012Ala/Leu2013Ala/Phe2014Ala (from UniProt P00451 1709-2351) (domain or fragment),Kd,[1],239 nM
A3C1C2 subunit from FVIII variant Val2016Ala (from UniProt P00451 1709-2351) (domain or fragment),Kd,[1],55.7 nM
A3C1C2 subunit from FVIII variant Leu2013Ala (from UniProt P00451 1709-2351) (domain or fragment),Kd,[1],63.9 nM
A3C1C2 subunit from recombinant wild type FVIII (from UniProt P00451 1709-2351) (domain or fragment),Kd,[1],57 nM
Factor X (natural protein),Kd,[4],89.9 nM
same,Ki,[4],154 nM
A3C1C2 subunit from FVIII variant Leu2015Ala (from UniProt P00451 1709-2351) (domain or fragment),Kd,[1],45.1 nM
A3C1C2 subunit from FVIII variant Thr2012Ala (from UniProt P00451 1709-2351) (domain or fragment),Kd,[1],85.8 nM
HAGMSTLFLV [synthetic peptide corresponding to FVIII A3 residues 2007-2016],Ki,[5],152000 nM
same,percent inhibition of FVIII LC binding to FX at 800 μM peptide,[5],80%
same,Kd,[6],7700 nM
"HAGMSTLFLV (also: biotinylated, position not given here) [biotinylated 2007-2016 peptide]",stoichiometry N,[7],1
